Literature values, collected in patent US20080070838A1, “Growth Factor Treatment for Asthma” (University of Southampton, priority 2004, published 2008).

Test system: airway fibrosis
Settings: mouse, in vivo

## TGFα: structural homologue of EGF and a ligand for the EGF receptor
  airway fibrosis: marked airway fibrosis
